We go through 7 molecules from patent EP4714976A1 (Sunshine Lake Pharma Co., Ltd., dated 2026).

The EC50 is the concentration at which the effect is half-maximal. By Kd is commonly meant a measure of binding affinity in units of concentration. As usually defined, the koff is a measure of how fast the partners let go of each other. The term kon denotes the rate constant with which the complex forms.

The target of assay [1] is T1, recombinant cynomolgus monkey FGFR2b (cynomolgus monkey).
T1 construct: extracellular domain; bought; also called cynomolgus macaque FGFR2b
The assay can be described thus: ELISA, antibody 1ug/mL. (In general: ELISA stands for enzyme-linked immunosorbent assay.)

The target in a further assay is T2, FGFR2b on KATO III cells (human, UniProt P21802-3 22-822).
T2 construct: whole, on cells; also called KATO III cells that overexpress FGFR2b
The assay can be described thus: flow cytometry, KATO III cells. In general terms: Flow cytometry measures light scatter and fluorescence of single cells or particles in a stream.

Assay [2] has as its target T3, human FGFR2b (Kaixia Biotechnology, catalog number FGR-HM1BB) (human, UniProt P21802-3 22-378).
T3 construct: extracellular domain; bought; also called hFGFR2b; human FGFR2b protein
The assay can be described thus: BLI, antibody on AHC2 sensor. Background: In BLI a coated tip is dipped into the sample, and binding shifts an interference pattern.

Assay [3] has as its target T3, human FGFR2b (Kaixia Biotechnology, …). The assay can be described thus: ELISA, FGFR2b coated at 1 µg/ml.
In assay [4] the target is T4, FGFR4 (acro) (UniProt P22455 22-369).
T4 sequence (looked up): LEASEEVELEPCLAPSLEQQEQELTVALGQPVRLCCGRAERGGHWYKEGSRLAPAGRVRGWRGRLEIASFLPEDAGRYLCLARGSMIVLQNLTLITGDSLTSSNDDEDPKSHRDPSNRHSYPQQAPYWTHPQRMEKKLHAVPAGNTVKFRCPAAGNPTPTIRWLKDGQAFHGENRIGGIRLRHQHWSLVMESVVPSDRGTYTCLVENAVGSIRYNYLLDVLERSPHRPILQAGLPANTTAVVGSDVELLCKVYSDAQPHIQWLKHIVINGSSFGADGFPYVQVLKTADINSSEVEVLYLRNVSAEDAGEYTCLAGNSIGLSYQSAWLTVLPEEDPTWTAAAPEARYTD
The assay can be described thus: ELISA.

Assay [5] has as its target T5, FGFR2c (acro) (UniProt P21802 22-377). The assay can be described thus: ELISA.
Assay [6] addresses T4, FGFR4 (acro). The assay can be described thus: ELISA, antibody 10 µg/mL.
Assay [7] concerns the target T5, FGFR2c (acro). The assay can be described thus: ELISA, antibody 10 µg/mL.

T3 sequence (P21802 other isoform, or with tags, fused parts or gaps): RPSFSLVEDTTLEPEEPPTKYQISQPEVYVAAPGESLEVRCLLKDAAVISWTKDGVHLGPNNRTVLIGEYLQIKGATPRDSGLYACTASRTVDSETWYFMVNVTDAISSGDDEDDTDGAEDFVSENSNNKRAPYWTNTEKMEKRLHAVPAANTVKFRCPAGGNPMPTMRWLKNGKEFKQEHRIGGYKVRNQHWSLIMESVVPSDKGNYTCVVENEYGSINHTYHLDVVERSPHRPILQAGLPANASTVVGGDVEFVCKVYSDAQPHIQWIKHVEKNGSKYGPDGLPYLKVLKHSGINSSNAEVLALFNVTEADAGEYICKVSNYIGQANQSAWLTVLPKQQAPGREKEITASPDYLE
T5 sequence (P21802 22-377): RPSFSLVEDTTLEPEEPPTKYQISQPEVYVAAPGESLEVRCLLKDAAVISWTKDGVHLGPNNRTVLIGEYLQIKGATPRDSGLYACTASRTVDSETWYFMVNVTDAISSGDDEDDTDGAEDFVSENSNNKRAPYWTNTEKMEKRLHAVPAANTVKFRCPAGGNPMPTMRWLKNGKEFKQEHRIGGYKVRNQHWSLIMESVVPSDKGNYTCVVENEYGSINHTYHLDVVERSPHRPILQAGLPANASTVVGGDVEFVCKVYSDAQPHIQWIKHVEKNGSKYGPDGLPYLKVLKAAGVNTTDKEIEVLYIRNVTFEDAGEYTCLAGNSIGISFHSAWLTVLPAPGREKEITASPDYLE
T2 sequence (P21802 other isoform, or with tags, fused parts or gaps): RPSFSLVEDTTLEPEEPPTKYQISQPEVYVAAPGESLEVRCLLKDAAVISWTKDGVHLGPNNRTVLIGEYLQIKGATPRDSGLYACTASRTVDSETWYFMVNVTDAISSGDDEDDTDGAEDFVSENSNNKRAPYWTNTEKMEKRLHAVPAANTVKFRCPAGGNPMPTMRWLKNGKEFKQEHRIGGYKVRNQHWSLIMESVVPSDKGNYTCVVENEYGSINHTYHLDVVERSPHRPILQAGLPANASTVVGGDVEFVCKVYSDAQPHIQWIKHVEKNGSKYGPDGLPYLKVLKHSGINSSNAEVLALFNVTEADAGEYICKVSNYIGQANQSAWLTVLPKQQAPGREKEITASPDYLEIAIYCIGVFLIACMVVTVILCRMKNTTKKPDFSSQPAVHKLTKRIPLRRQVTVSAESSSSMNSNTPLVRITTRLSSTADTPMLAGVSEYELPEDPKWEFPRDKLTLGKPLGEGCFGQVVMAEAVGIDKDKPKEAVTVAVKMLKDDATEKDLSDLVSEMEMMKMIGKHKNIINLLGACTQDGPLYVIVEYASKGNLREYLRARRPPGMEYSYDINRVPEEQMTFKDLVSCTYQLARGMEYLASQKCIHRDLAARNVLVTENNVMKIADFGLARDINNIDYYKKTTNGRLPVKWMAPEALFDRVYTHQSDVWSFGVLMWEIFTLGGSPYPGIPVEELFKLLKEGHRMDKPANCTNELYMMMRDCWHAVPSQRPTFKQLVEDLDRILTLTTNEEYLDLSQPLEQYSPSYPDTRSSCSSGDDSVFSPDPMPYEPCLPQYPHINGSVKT

B1: 3H6 scFv-Fc (Fc fusion)
chain: QVQLQQSGAELVKPGASVKMSCKASGYTFSFYNIHWVRQTPGQGLEWIGLIYPDNGDTSYNQKFKAKATLTADKSSSTAYMQLSSLTSEDSAVYYCARGGFDYWGQGTTLTVSSGGGGSGGGGSGGGGSDIQMTQSPASLSASVGETVTITCRASENIYSYLAWYQQKQGKSPQLLVYNAKTLAEGVPSRFSGSGSGTQFSLKINSLQPEDFGSYYCQHHYGTPYTFGGGTKLEMKESKYGPPCPPCPAPEAAGGPSVFLFPPKPKDTLMISRTPEVTCVVVDVSQEDPEVQFNWYVDGVEVHNAKTKPREEQFNSTYRVVSVLTVLHQDWLNGKEYKCKVSNKGLPSSIEKTISKAKGQPREPQVYTLPPSQEEMTKNQVSLTCLVKGFYPSDIAVEWESNGQPENNYKTTPPVLDSDGSFFLYSKLTVDKSRWQEGNVFSCSVMHEALHNHYTQKSLSLSLG
notes: scFv-Fc dimer
As to B1, the “OD (450 nm) value” was determined as 3.35 in assay [1], 0.157 with FGFR4 (acro) [6] and 0.093 with FGFR2c (acro) [7]. In addition, the EC50 in the assay with FGFR2b on KATO III cells worked out at 0.226 µg/mL; in assay [3], 0.0128 µg/mL. Also, the Kd in assay [2] turned out to be 8.41 nM. This molecule also gave a koff in assay [2] of 0.00166 s⁻¹. In assay [2], this molecule registered an association rate constant (kon) of 198000 M⁻¹ s⁻¹. In addition, the binding result with FGFR4 (acro) [4] and with FGFR2c (acro) [5] was “no binding (tested: 10 µg/mL)” in each case.

B2: 3F10 scFv-Fc (Fc fusion)
chain: EVQLQQSGAELVKPGASVKMSCKASGYTFSFYNIHWVRQTPGQGLEWIGLIYPDNGDTSYNQKFKAKATLTADKSSSTAYMQLSSLTSEDSAVYYCARGGFDYWGQGTTLTVSSGGGGSGGGGSGGGGSDVLMTQSPASLSASVGETVTITCGASENIYGALNWYQRKQGKSPQLLIYGATNLADGMSSRFSGSGSGRQYSLKISSLHPDDVATYYCQNVLSTPYTFGGGTKLEIKESKYGPPCPPCPAPEAAGGPSVFLFPPKPKDTLMISRTPEVTCVVVDVSQEDPEVQFNWYVDGVEVHNAKTKPREEQFNSTYRVVSVLTVLHQDWLNGKEYKCKVSNKGLPSSIEKTISKAKGQPREPQVYTLPPSQEEMTKNQVSLTCLVKGFYPSDIAVEWESNGQPENNYKTTPPVLDSDGSFFLYSKLTVDKSRWQEGNVFSCSVMHEALHNHYTQKSLSLSLG
notes: scFv-Fc dimer
Regarding B2, the “OD (450 nm) value” came out at 3.22 in assay [1], 0.123 with FGFR4 (acro) [6] and 0.106 with FGFR2c (acro) [7]. Moreover, the figures for the EC50 (with FGFR2b on KATO III cells; in assay [3]) were 0.159 µg/mL and 0.00818 µg/mL, respectively. Besides, the Kd in assay [2] worked out at 7.62 nM. Moreover, in assay [2], the koff worked out at 0.00231 s⁻¹. In assay [2], this molecule returned a kon of 303000 M⁻¹ s⁻¹. Further, the binding result with FGFR4 (acro) [4] and with FGFR2c (acro) [5] was “no binding (tested: 10 µg/mL)” each time.

B3: 2B1 scFv-Fc (Fc fusion)
chain: EVQLQQSGAELVKPGASVKMSCKASGYTFASYNLHWVKQTPGQGLEWIGLIYPENGDTSYNQKFKGKATLTADKSSSTAYIQLSSLTSEDSAVYFCARGGFDYWGQGTSLTVSSGGGGSGGGGSGGGGSDIQMIQSPASLSVSVGETVTITCRASENIYSNLAWYQQKQGKSPQLLVYNAKTLADGVPSRFSGSGSGTQYSLKINSLQPEDFGSYYCQHFWSTPYTFGGGTKLEIKESKYGPPCPPCPAPEAAGGPSVFLFPPKPKDTLMISRTPEVTCVVVDVSQEDPEVQFNWYVDGVEVHNAKTKPREEQFNSTYRVVSVLTVLHQDWLNGKEYKCKVSNKGLPSSIEKTISKAKGQPREPQVYTLPPSQEEMTKNQVSLTCLVKGFYPSDIAVEWESNGQPENNYKTTPPVLDSDGSFFLYSKLTVDKSRWQEGNVFSCSVMHEALHNHYTQKSLSLSLG
notes: scFv-Fc dimer
For B3, the “OD (450 nm) value” amounted to 3 in assay [1], 0.103 with FGFR4 (acro) [6] and 0.098 with FGFR2c (acro) [7]. In addition, the results for the EC50 (in the assay with FGFR2b on KATO III cells; in assay [3]) were 0.195 µg/mL and 0.0276 µg/mL, respectively. For the same molecule, in assay [2], binding was put at a Kd of 6.67 nM. This molecule gave a dissociation rate constant (koff) in assay [2] of 0.00179 s⁻¹. This molecule displayed an on-rate (kon) in assay [2] of 268000 M⁻¹ s⁻¹. Also, the binding result in the assay with FGFR4 (acro) [4] and with FGFR2c (acro) [5] was “no binding (tested: 10 µg/mL)” in each case.

B4: 3A12 scFv-Fc (Fc fusion)
chain: EVQLQQSGAELVKPGASVKMSCKASGYTFSFYNVHWVRQTPGQGLEWIGLIYPDNGDTSYNQKFKAKATLTADKSSSAAYMQLSSLTSEDSAVYYCARGGFDYWGQGTSLTVSSGGGGSGGGGSGGGGSDIVMTQSHKFMSTSVGDRVNITCKASQDVSTAVAWYQQKPGQSPKLLIYSASYRYSGVPDRFTGSGSGTDFTFTISSVQAEDLAVYYCQQHYSTPYTFGGGTKLEMKESKYGPPCPPCPAPEAAGGPSVFLFPPKPKDTLMISRTPEVTCVVVDVSQEDPEVQFNWYVDGVEVHNAKTKPREEQFNSTYRVVSVLTVLHQDWLNGKEYKCKVSNKGLPSSIEKTISKAKGQPREPQVYTLPPSQEEMTKNQVSLTCLVKGFYPSDIAVEWESNGQPENNYKTTPPVLDSDGSFFLYSKLTVDKSRWQEGNVFSCSVMHEALHNHYTQKSLSLSLG
notes: scFv-Fc dimer
Turning to B4, the “OD (450 nm) value” in assay [1] was 3.27; with FGFR4 (acro) [6] it was 0.106; with FGFR2c (acro) [7] it was 0.098. Further, the values for the EC50 (in the assay with FGFR2b on KATO III cells; in assay [3]) were 0.292 µg/mL and 0.0128 µg/mL, respectively. The same molecule displayed a Kd in assay [2] of 2.82 nM. The off-rate (koff) in assay [2] came to 0.000662 s⁻¹. In addition, in assay [2], the on-rate (kon) came to 235000 M⁻¹ s⁻¹. Also, the binding result in the assay with FGFR4 (acro) [4] and in the assay with FGFR2c (acro) [5] was “no binding (tested: 10 µg/mL)” each time.

B5: 3E7 scFv-Fc (Fc fusion)
chain: QVQLQQSGAELVKPGASVKMSCKASGYTFTIYNIHWVRQTPGQGLEWIGLIYPDNGDTSYNQKFKAKATLTADKSSSTAYMQLSSLTSEDSAVYYCARGGFDYWGQGTTLTVSSGGGGSGGGGSGGGGSNIVMTQSQKFMSTSVGDRVSVTCKASQNVGTNVAWYQQKPGQSPKALIYSASYRYSGVPDRFTGSGSGTDFTLTISGVQAEDLADYYCQQHYNTPYTFGGGTKLEIKESKYGPPCPPCPAPEAAGGPSVFLFPPKPKDTLMISRTPEVTCVVVDVSQEDPEVQFNWYVDGVEVHNAKTKPREEQFNSTYRVVSVLTVLHQDWLNGKEYKCKVSNKGLPSSIEKTISKAKGQPREPQVYTLPPSQEEMTKNQVSLTCLVKGFYPSDIAVEWESNGQPENNYKTTPPVLDSDGSFFLYSKLTVDKSRWQEGNVFSCSVMHEALHNHYTQKSLSLSLG
notes: scFv-Fc dimer
For B5, the “OD (450 nm) value” in assay [1] was 3.15; with FGFR4 (acro) [6], 0.125; with FGFR2c (acro) [7], 0.114. Besides, the results for the concentration for a half-maximal effect (EC50) (with FGFR2b on KATO III cells; in assay [3]) were 0.298 µg/mL and 0.0154 µg/mL, respectively. In assay [2], the equilibrium dissociation constant (Kd) was determined as 4.35 nM. In addition, the dissociation rate constant (koff) in assay [2] amounted to 0.00111 s⁻¹. This molecule came in with a kon in assay [2] of 256000 M⁻¹ s⁻¹. Also, the binding result with FGFR4 (acro) [4] and with FGFR2c (acro) [5] was “no binding (tested: 10 µg/mL)” throughout.

B6: 3A3 scFv-Fc (Fc fusion)
chain: QVQLQQSGAELVKPGASVKMSCKASGYTFTTYNIHWVRQTPGQGLEWIGLIYPDNGDTSYNQKFKAKATLTADKSSSTAYMHLSSLTSEDSAVYYCARGGFDYWGQGTTLTVSSGGGGSGGGGSGGGGSDIVMTQSHKFMSTSVGDRVSITCKASQDVNTDVSWYQQKPGQSPKLLIYSASYRYTGVPTRFTGSGSGTDFTFTISGVQAEDLADYYCQQHYNTPYTFGGGTRLEIKESKYGPPCPPCPAPEAAGGPSVFLFPPKPKDTLMISRTPEVTCVVVDVSQEDPEVQFNWYVDGVEVHNAKTKPREEQFNSTYRVVSVLTVLHQDWLNGKEYKCKVSNKGLPSSIEKTISKAKGQPREPQVYTLPPSQEEMTKNQVSLTCLVKGFYPSDIAVEWESNGQPENNYKTTPPVLDSDGSFFLYSKLTVDKSRWQEGNVFSCSVMHEALHNHYTQKSLSLSLG
notes: scFv-Fc dimer
For the molecule B6, the “OD (450 nm) value” in assay [1] came to 3.2; with FGFR4 (acro) [6] it was 0.136; in the assay with FGFR2c (acro) [7], 0.137. The half-maximal effective concentration (EC50) in the assay with FGFR2b on KATO III cells worked out at 0.236 µg/mL; in assay [3], 0.0216 µg/mL. Also, the equilibrium dissociation constant (Kd) in assay [2] is 3.71 nM. The molecule also showed a koff in assay [2] of 0.00133 s⁻¹. Besides, the kon in assay [2] came out at 359000 M⁻¹ s⁻¹. For the same molecule, the binding result in the assay with FGFR4 (acro) [4] and with FGFR2c (acro) [5] was “no binding (tested: 10 µg/mL)” each time.

B7: 2B2 scFv-Fc (Fc fusion)
chain: QLQLQQSGAELVKPGASVKMSCKASGYTFASYNLHWVKQTPGQGLEWIGLIYPENGDTSYNQKFKDKATLTADKSSTTAYIQLSSLASEDSAVYFCARGGFDYWGQGTTLTVSSGGGGSGGGGSGGGGSDIVMTQSQKFMSTSVGDRVSVTCKASQNVGTNVAWYQQKPGQSPKALIYSASYRYSGVPDRFTGSGSGTDYTLTISSVQAEDLALYYCQQHYSTPYTFGGGTKLELKESKYGPPCPPCPAPEAAGGPSVFLFPPKPKDTLMISRTPEVTCVVVDVSQEDPEVQFNWYVDGVEVHNAKTKPREEQFNSTYRVVSVLTVLHQDWLNGKEYKCKVSNKGLPSSIEKTISKAKGQPREPQVYTLPPSQEEMTKNQVSLTCLVKGFYPSDIAVEWESNGQPENNYKTTPPVLDSDGSFFLYSKLTVDKSRWQEGNVFSCSVMHEALHNHYTQKSLSLSLG
notes: scFv-Fc dimer
With B7, the “OD (450 nm) value” in assay [1] is 3.19; with FGFR4 (acro) [6], 0.093; in the assay with FGFR2c (acro) [7], 0.113. Also, the EC50 with FGFR2b on KATO III cells was 0.233 µg/mL; in assay [3], 0.0216 µg/mL. Moreover, binding in assay [2] was characterised by a dissociation constant (Kd) of 6.18 nM. Moreover, the koff in assay [2] turned out to be 0.00286 s⁻¹. In addition, the on-rate (kon) in assay [2] worked out at 462000 M⁻¹ s⁻¹. Also, the binding result in the assay with FGFR4 (acro) [4] and in the assay with FGFR2c (acro) [5] was “no binding (tested: 10 µg/mL)” throughout.
